Assay results as given in patent US20220305133A1 (CSL INNOVATION, published 2022).

B1: VR81, mouse monoclonal IgG1κ antibody against the extracellular domain of murine G-CSFR (antibody, V domains shown)
VH: EVQLLESGGGLVQPGGSLRLSCAASGFTFSYYAMWWVRQAPGKGLEWVSLIDVSGGVQLYADSVKGRFTISRDNSKNTLYLQMNSLRAEDTAVYYCAKPLIGTRDAFDIWGQGTMVTVSS
VL: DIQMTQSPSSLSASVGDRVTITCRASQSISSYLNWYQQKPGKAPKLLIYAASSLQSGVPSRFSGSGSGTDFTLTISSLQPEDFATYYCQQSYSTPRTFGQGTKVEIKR
B2: ch3F7-mG1L-aFXII (3F7) (antibody, V domains shown)
VH: EVQLLESGGGLVQPGGSLRLSCAASGFTFSKYIMQWVRQAPGKGLEWVSGIRPSGGTTVYADSVKGRFTISRDNSKNTLYLQMNSLRAEDTAVYYCARALPRSGYLISPHYYYYALDVWGQGTTVTVSS
VL: QSELTQPPSASGTPGQRVTISCSGSSSNIGRNYVYWYQQVPGTAPKLLIYSNNQRPSGVPDRFSGSKSGTSASLVISGLRSEDEADYYCAAWDASLRGVFGGGTKLTVLG

Key:
[1] = target: T1, murine G-CSF receptor (G-CSFR) on mouse NFS-60 cells (mouse, UniProt P40223 26-837); assay: cell-based or functional assay
T1 sequence (looked up): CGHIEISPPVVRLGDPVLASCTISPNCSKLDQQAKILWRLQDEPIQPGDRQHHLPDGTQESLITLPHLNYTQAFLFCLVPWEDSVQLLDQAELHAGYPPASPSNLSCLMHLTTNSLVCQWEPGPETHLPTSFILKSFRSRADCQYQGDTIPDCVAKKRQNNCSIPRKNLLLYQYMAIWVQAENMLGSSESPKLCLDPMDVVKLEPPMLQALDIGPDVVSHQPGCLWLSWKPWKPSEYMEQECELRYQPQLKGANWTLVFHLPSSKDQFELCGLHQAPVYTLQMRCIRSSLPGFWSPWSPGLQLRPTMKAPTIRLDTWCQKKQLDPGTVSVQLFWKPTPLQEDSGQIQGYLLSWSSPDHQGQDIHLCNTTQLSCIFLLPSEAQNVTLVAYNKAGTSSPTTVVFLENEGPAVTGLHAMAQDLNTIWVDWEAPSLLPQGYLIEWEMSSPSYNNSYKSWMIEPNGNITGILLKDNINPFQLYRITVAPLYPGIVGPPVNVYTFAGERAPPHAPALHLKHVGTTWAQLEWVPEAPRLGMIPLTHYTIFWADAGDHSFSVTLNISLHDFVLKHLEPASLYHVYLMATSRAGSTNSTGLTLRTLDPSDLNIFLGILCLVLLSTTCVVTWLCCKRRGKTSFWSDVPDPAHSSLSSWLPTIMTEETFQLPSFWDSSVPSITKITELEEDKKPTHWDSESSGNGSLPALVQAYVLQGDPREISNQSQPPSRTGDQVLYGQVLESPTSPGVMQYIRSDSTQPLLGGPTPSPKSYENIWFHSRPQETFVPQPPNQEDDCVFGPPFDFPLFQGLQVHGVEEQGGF

[2] = target: T2, Factor XIIa (activated Factor XII) (UniProt P00748 20-615, limits assumed); assay: cell-based or functional assay
T2 sequence (looked up): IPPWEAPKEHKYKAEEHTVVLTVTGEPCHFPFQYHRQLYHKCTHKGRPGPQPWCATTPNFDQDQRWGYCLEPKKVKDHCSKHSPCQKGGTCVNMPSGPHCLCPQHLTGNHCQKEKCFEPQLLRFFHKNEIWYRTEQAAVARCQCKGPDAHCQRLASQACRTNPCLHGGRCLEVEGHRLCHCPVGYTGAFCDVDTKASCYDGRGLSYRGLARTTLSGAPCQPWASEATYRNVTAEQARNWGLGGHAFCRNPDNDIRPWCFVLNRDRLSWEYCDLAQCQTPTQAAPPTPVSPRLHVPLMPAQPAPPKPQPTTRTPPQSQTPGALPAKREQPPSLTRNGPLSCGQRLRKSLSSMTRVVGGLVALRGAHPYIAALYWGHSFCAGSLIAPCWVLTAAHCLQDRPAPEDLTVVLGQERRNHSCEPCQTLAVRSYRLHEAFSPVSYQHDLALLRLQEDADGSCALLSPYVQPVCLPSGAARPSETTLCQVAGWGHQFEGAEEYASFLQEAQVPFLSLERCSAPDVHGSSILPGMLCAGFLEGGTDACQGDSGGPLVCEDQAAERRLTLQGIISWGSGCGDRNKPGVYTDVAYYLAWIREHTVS

Row | Binder | IC50 (nM), inhibition of mG-CSF-dependent proliferation of mouse NFS-60 cells, stimulated with 0.1 ng/ml mG-CSF [1] [nM] | IC50 (nM), inhibition of mG-CSF-dependent proliferation of mouse NFS-60 cells, stimulated with 1.0 ng/ml mG-CSF [1] [nM] | IC50 (nM), chromogenic assay of Factor XIIa activity [2] [nM]
1 | B1 | 0.00104 | 0.00323 | –
2 | B2 | – | – | 17.2
